Laboratory results as given in patent US20230340123A1 (published 2023).

What was measured:
[1] = biological target: T1, cynoBTLA-human Fc (cynomolgus, UniProt A0A2K5W7M7 31-151); experiment: blocking ELISA: cynoBTLA-human Fc binding to coated human HVEM-ratIgG2a
T1 construct: not shown: human Fc

[2] = biological target: T2, human BTLA-human Fc (human, UniProt Q7Z6A9 31-151, limits assumed); experiment: blocking ELISA: BTLA-human Fc binding to coated human HVEM-ratIgG2a
T2 construct: not shown: human Fc

[3] = biological target: T3, cynomolgus BTLA (analyte in Bio-Layer Interferometry) (cynomolgus, UniProt A0A2K5W7M7 31-151); experiment: Bio-Layer Interferometry (Octet), antibody captured by anti-human-Fc, BTLA in solution, 1:1 model
T3 construct: also called Cyno BTLA

[4] = biological target: recombinant human BTLA (human, UniProt Q7Z6A9 31-151, limits assumed); experiment: as above
[5] = biological target: T4, human BTLA(ECD)-HIS (human, UniProt Q7Z6A9 31-157); experiment: ELISA, BTLA(ECD)-HIS coated, chemiluminescence (RLU)
T4 construct: extracellular domain; not shown: HIS tag

[6] = biological target: T5, cynomolgus BTLA(ECD)-HIS (cynomolgus, UniProt A0A2K5W7M7 31-157); experiment: as above
T5 construct: extracellular domain; also called Cyno BTLA; not shown: HIS tag

[7] = biological target: T6, cynomolgus BTLA expressed on HEK-293 cells (cynomolgus, UniProt A0A2K5W7M7 31-289); experiment: flow cytometry (MFI) on HEK 293 cells expressing BTLA
T6 construct: whole, on cells; also called Cyno BTLA

[8] = biological target: T7, human BTLA expressed on HEK-293 cells (human, UniProt Q7Z6A9 31-289); experiment: as above
T7 construct: whole, on cells

T5 sequence (A0A2K5W7M7 entry or part of it): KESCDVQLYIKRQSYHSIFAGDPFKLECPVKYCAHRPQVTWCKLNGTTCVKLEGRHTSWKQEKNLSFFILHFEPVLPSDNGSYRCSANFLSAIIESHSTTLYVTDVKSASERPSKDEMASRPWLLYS
T1 sequence (A0A2K5W7M7 entry or part of it): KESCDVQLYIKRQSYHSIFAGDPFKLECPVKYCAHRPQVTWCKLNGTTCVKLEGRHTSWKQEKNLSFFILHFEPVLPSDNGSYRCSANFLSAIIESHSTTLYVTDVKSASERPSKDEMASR
T6 sequence (A0A2K5W7M7 entry or part of it): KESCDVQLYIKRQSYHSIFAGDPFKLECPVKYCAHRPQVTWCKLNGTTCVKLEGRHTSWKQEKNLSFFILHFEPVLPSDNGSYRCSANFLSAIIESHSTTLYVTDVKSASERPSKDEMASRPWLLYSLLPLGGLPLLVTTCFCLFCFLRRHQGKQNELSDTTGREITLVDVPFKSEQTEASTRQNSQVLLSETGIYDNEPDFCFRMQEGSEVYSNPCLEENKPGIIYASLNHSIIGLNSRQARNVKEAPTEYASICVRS

B1: anti-BTLA antibody 15-C19A (antibody, V domains shown)
VH: QVQLQESGPGLVKPSETLSLTCTVSGGSISSYYWSWIRQPPGKGLEWIGYISYSGSTNYNPSLKSRVTISADTSKNQFSLKLSSVTAADTAVYYCARDFYYGMDVWGQGTTVTVSS
VL: AIQLTQSPSSLSASVGDRVTITCRASQGISSALAWYQQKPGKAPKLLIYDASSLESGVPSRFSGSGSGTDFTLTISSLQPEDFATYYCHQFDYYPTFGGGTKVEIK
[1]
  IC50: 2.4 nM
[2]
  IC50: 3.5 nM
[3]
  Kd: 0.1 nM
[4]
  Kd: 144 nM
[5]
  EC50: 0.8 nM
[6]
  EC50: 1.4 nM
[7]
  EC50: 4.4 nM
[8]
  EC50: 5.5 nM
